For assay [1], the target named is human HER2-His protein (Acro, Cat. No. HE2-H5225) (human) (UniProt P04626). Nature of the assay: ELISA, 1 nM. On the technique in general: ELISA stands for enzyme-linked immunosorbent assay.
The target of assay [2] is monkey HER2-His protein (Sino Biological, Cat. No. 90295-C08H) (monkey). Put plainly: ELISA, 0.00001 nM.
Assay [3] has as its target human HER2-His protein (Acro, Cat. No. HE2-H5225) (human) (UniProt P04626). Put plainly: ELISA, 0.00001 nM.
In assay [4] the target is monkey HER2-His protein (Sino Biological, Cat. No. 90295-C08H) (monkey). Put plainly: ELISA, 10 nM.
Assay [5] concerns the target human HER2-His protein (Acro, Cat. No. HE2-H5225) (human) (UniProt P04626). Nature of the assay: ELISA, 10 nM.
Assay [6] addresses monkey HER2-His protein (Sino Biological, Cat. No. 90295-C08H) (monkey). Nature of the assay: ELISA, 0.001 nM.
Assay [7] deals with human HER2-His protein (Acro, Cat. No. HE2-H5225) (human) (UniProt P04626). Nature of the assay: ELISA, 0.001 nM.
Assay [8] concerns the target monkey HER2-His protein (Sino Biological, Cat. No. 90295-C08H) (monkey). Put plainly: ELISA, 0.0001 nM.
Assay [9] has as its target human HER2-His protein (Acro, Cat. No. HE2-H5225) (human) (UniProt P04626). Nature of the assay: ELISA, 0.0001 nM.
Assay [10] deals with monkey HER2-His protein (Sino Biological, Cat. No. 90295-C08H) (monkey). Nature of the assay: ELISA, 0.1 nM.
In assay [11] the target is human HER2-His protein (Acro, Cat. No. HE2-H5225) (human) (UniProt P04626). Nature of the assay: ELISA, 0.1 nM.
The target in assay [12] is monkey HER2-His protein (Sino Biological, Cat. No. 90295-C08H) (monkey). Put plainly: ELISA, 0.01 nM.
The target in assay [13] is human HER2-His protein (Acro, Cat. No. HE2-H5225) (human) (UniProt P04626). Nature of the assay: ELISA, 0.01 nM.
In assay [14] the target is monkey HER2-His protein (Sino Biological, Cat. No. 90295-C08H) (monkey). Nature of the assay: ELISA, 100 nM.
Assay [15] addresses human HER2-His protein (Acro, Cat. No. HE2-H5225) (human) (UniProt P04626). Nature of the assay: ELISA, 100 nM.
Assay [16] shares this target. Put plainly: ELISA, 0.001 nM. This is another data set of the same source.
Assay [17] has the same target. Put plainly: ELISA, 10 nM. The source holds these as a separate data set.
Assay [18] has the same target. Nature of the assay: ELISA, 1 nM. This is another data set of the same source.
Assay [19] has as its target human HER2 protein on cells (SK-BR-3 endogenous; CHO-K1-human HER2 recombinant) (human) (UniProt P04626). Put plainly: FACS on CHO-K1-human HER2 cells.
The target is the same in assay [20]. Nature of the assay: FACS on SK-BR-3 cells.
In assay [21] the target is monkey HER2-His protein (monkey). Put plainly: ELISA, coated monkey HER2-His.
Assay [22] has as its target monkey HER2 on HEK293T-monkey-HER2 cells (monkey). Nature of the assay: FACS on HEK293T-monkey-HER2 cells.

We go through two substances from patent publication US20240076403A1.

As for hIgG1 (IgG subtype control) (antibody), the OD450 in assay [1] came out at 0.05; in assay [2], 0.05; in assay [3], 0.05; in [4] it was 0.07; in [5] it was 0.06; in assay [6], 0.05. Moreover, the OD450 is 0.05 in assay [7]; 0.06 in [8]; 0.06 in assay [9]; 0.05 in assay [10]; 0.05 in assay [11]; 0.08 in [12]. Moreover, the OD450 in [13] was 0.06; in assay [14], 0.12; in assay [15] it was 0.06; in assay [16] it was 0.06; in [17] it was 0.05; in assay [18], 0.06. Besides, the results for the Max MFI in assay [19] and in assay [20] were 71 and 73, respectively.

Consider hIgG1 (antibody), for which, in assay [21], the OD450 nm at 0.0001 nM antibody turned out to be 0.06 OD450 nm, the OD450 nm at 0.001 nM antibody was determined as 0.09 OD450 nm, the OD450 nm at 0.01 nM antibody was 0.05 OD450 nm and the OD450 nm at 0.1 nM antibody was determined as 0.06 OD450 nm. In addition, in [21], the OD450 nm at 1 nM antibody came to 0.05 OD450 nm, the OD450 nm at 10 nM antibody was found to be 0.05 OD450 nm and the OD450 nm at 100 nM antibody worked out at 0.09 OD450 nm. Further, in assay [22], the Max MFI amounted to 127 MFI.
